The values below come from PMC8115599, “Mechanism of MRX inhibition by Rif2 at telomeres” (Nature Communications, 2021).

The test concerns the target T1, GST-Rif2_(1-60) (S. cerevisiae, UniProt Q06208 1-60).
T1 construct: Rif2, S. cerevisiae, residues 1-60; also called GST-ScRif2_(1-60); Rif2 BAT; source: E. coli BL21 (DE3), purified (GSH Sepharose, Hitrap Heparine)
T1 sequence (looked up): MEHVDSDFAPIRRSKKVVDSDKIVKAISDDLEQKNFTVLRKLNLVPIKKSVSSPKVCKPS
Put plainly: pull-down; GST-Rif2_(1-60), its F8A mutant or GST (10 µg) immobilised on Glutathione Sepharose 4B; Rad50∆CC (30 µg) added in 100 µL 50 mM Tris HCl pH 8, 150 mM NaCl, 1 mM DTT, 0.5 mM EDTA, 10% glycerol, 2 mM MgCl2, benzonase; 120 min at 4 °C; glutathione elution, SDS-PAGE, silver staining. The note with it: both partners purified.

B1: Rad50∆CC, purified (His-SUMO tag removed) (domain or fragment, S. cerevisiae)
chain: MSAIYKLSIQGIRSFDSNDRETIEFGKPLTLIVGMNGSGKTTIIECLKYATTGDLPPNSKGGVFIHDPKITGEKDIRAQVKLAFTSANGLNMIVTRNIQLLMKKTTTTFKTLEGQLVAINNSGDRSTLSTRSLELDAQVPLYLGVPKAILEYVIFCHQEDSLWPLSEPSNLKKKFDEIFQAMKFTKALDKILCYDDIDVYSKALDSAIMKYHGLKMQDINRIIDELWKRTYSGTDIDTIKIRSDEVSSTVKGKSYNYRVVMYKQDVELDMRGRCSAGQKVLASIIIRLALSETFGANCGVIALDEPTTNLDEENIESLAKSLHNIINMRRHQKNFQLIVITHDEKFLGHMNAAAFTDHFFKVKRDDRQKSQIEWVDINRVTY
notes: Rad50, S. cerevisiae, N-terminal Head domain, residues 1-189; residues joining the two Head domains in the Rad50∆CC allele; Rad50, S. cerevisiae, C-terminal Head domain, residues 1125-1312; also called Rad50 ATPase Head; Rad50 Head domains; source: E. coli BL21 (DE3), purified (NiNTA, PD10; tag cleaved with His-SUMO-Protease); not shown: His6-SUMO, N-terminal, cleaved
For B1, the binding result is “binds”.
